Like-named read-outs stand apart in the source and are kept apart here. Where no end group is shown, it is not given here. [ ]: non-standard residue; d: D form. Phe(4-guanidino) = N=C(N)Nc1ccc(C[C@H](N)C(=O)O)cc1
B1: PTH(1-31)NH2 Arg^20→Gph (peptide)
peptide: SVSEIQLMHNLGKHLNSME[Phe(4-guanidino)]VEWLRKKLQDV-NH2
modifications: N-terminus assumed
SMILES: CC[C@H](C)[C@H](NC(=O)[C@H](CCC(=O)O)NC(=O)[C@H](CO)NC(=O)[C@@H](NC(=O)[C@@H](N)CO)C(C)C)C(=O)N[C@@H](CCC(N)=O)C(=O)N[C@@H](CC(C)C)C(=O)N[C@@H](CCSC)C(=O)N[C@@H](Cc1c[nH]cn1)C(=O)N[C@@H](CC(N)=O)C(=O)N[C@@H](CC(C)C)C(=O)NCC(=O)N[C@@H](CCCCN)C(=O)N[C@@H](Cc1c[nH]cn1)C(=O)N[C@@H](CC(C)C)C(=O)N[C@@H](CC(N)=O)C(=O)N[C@@H](CO)C(=O)N[C@@H](CCSC)C(=O)N[C@@H](CCC(=O)O)C(=O)N[C@@H](Cc1ccc(NC(=N)N)cc1)C(=O)N[C@H](C(=O)N[C@@H](CCC(=O)O)C(=O)N[C@@H](Cc1c[nH]c2ccccc12)C(=O)N[C@@H](CC(C)C)C(=O)N[C@@H](CCCNC(=N)N)C(=O)N[C@@H](CCCCN)C(=O)N[C@@H](CCCCN)C(=O)N[C@@H](CC(C)C)C(=O)N[C@@H](CCC(N)=O)C(=O)N[C@@H](CC(=O)O)C(=O)N[C@H](C(N)=O)C(C)C)C(C)C

Legend:
wild-type human PTHR [1] = target: T1, wild-type human PTHR (human, UniProt Q03431 27-593); test: competition binding, HKRK-B7 cells, 125I-PTH(1-34) tracer
T1 sequence (looked up): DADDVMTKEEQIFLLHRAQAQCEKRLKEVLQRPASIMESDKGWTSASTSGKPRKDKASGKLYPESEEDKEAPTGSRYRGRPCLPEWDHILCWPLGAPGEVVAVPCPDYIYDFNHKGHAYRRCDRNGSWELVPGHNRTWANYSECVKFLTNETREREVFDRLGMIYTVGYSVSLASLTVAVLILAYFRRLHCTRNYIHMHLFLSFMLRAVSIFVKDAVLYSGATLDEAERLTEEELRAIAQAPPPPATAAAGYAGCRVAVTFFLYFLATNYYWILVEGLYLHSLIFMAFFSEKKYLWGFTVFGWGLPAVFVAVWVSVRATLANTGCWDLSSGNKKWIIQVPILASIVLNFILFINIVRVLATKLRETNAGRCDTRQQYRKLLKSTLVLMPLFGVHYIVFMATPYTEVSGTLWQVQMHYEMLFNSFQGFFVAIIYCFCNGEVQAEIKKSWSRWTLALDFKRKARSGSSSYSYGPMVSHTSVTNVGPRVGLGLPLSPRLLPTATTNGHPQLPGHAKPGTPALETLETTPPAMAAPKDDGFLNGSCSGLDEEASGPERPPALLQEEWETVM

PTHR-delNt (human) [2] = target: PTHR-delNt (human) (UniProt Q03431); test: competition binding, COS-7 membranes, 125I-[Aib1,3,M]PTH(1-15) tracer
wild-type human PTHR [3] = target: T1, wild-type human PTHR; test: competition binding, HKRK-B7 cells, 125I-PTH(1-34) tracer
How it was run: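 Intact HKRK-B7 cells stably expressing hPTHR incubated 4 h at 15° C with ¹²⁵I-PTH(1-34) tracer and unlabeled peptide (3×10⁻⁹ to 1×10⁻⁵ M). Nonspecific binding defined with 1×10⁻⁶ M PTH(1-31)NH₂. Bound activity counted after lysis and expressed as % specific binding without competitor; values in nM, mean ± s.e.m.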

PTHR-delNt (human) [4] = target: PTHR-delNt (human) (UniProt Q03431); test: competition binding, COS-7 membranes, 125I-[Aib1,3,M]PTH(1-15) tracer; remark: listed apart in the source

Row | Binder | IC50 (wild-type human PTHR [1]) | IC50 (PTHR-delNt (human) [2]) | fold difference of IC50 from PTH(1-31)NH2 (PTHR-delNt (human) [2]) | IC50 (wild-type human PTHR [3]) | fold reduction in binding affinity vs [Ala^1,Arg^19]PTH(1-31)NH2 (PTHR-delNt (human) [2]) | fold reduction in binding affinity vs [Ala^1,Arg^19]PTH(1-31)NH2 (PTHR-delNt (human) [4])
1 | B1 | > 10000 nM | 2050 nM | < 4 fold | – | – | –
2 | AVSEIQLMHNLGKHLNSMERVEWLRKKLQDV-NH2 [[Ala^1,Arg^19]hPTH(1-31)NH2 Arg^19→Glu] | – | 18900 nM | – | 125 nM | 50 fold | 90 fold

From patent publication US20100081612A1 (GENERAL HOSPITAL, published 2010)
